Assay in all cases: FP
Details in all cases: tags: His6 (pET15b, E. coli BL21(DE3)); label: FAM

Series [1] has as its target eIF4A2 (UniProt P10630 P10630:1-407). As to the method:
(§1) FIGS. 17A-17F. Assessment of eIF4A1 and eIF4A2 RNA binding specificity. 17A. Chemical structure of the most commonly used rocaglates in biological studies 17B. Coomassie blue staining of SDS-PAGE showing eIF4A1 and eIF4A2 preparations used herein. 17C. eIF4A1 and eIF4A2 have similar RNA binding specificities. eIF4A1 or eIF4A2 (500 nM) were incubated in the presence of FAM-labelled RNA (10 nM) having the indicated sequence composition for 30 mins, after which FP measurements were taken. The change in FP obtained relative to vehicle controls is presented. n=3 SD. 17D. Binding of eIF4A1 and eIF4A2 to RNA is equally responsive to CR-1-31-B (23). FAM labeled poly r(AG)₈ (SEQ ID NO: 2) (10 nM) was mixed with the indicated concentrations of eIF4A1 or eIF4A2 either in the presence of vehicle (DMSO) or […] CR-1-31-B(23). Reactions were equilibrated at RT for 30 minutes prior to measuring light polarization. n=3 SD. 17E. […] FAM-labelled RNA was incubated in the presence of 500 nM eIF4A1 and the indicated concentration of CR-1-31-B (23) for 30 min, after which time FP measurements were obtained. The change in FP relative to vehicle controls is presented. n=3±SD. 17F. The extent of eIF4A-RNA binding stimulated by CR-1-31-B 23 scales with polypurine content. FAM-labelled RNA was incubated with 500 nM eIF4A1 and the indicated concentration of CR-1-31-B (23) for 30 min, after which time FP measurements were obtained. The change in FP obtained relative to vehicle controls is presented. n=3 SD.

In series [2] the target is T1, eIF4A1 (UniProt P60843 P60843:1-406). As to the method: as §1
For series [3], the target named is T1, eIF4A1. As to the method:
FAM-labelled RNA was incubated in the presence of 500 nM eIF4A1 and the indicated concentration of CR-1-31-B for 30 min, after which time FP measurements were obtained. The change in FP relative to vehicle controls is presented. n=3 SD.
as §1, with “The extent of eIF4A-RNA binding stimulated by CR-1-31-B 23 scales with polypurine content. FAM-labelled RNA was incubated with 500 nM eIF4A1 and the indicated concentration of CR-1-31-B (23) for 30 min, after which time FP measurements were obtained. The change in FP obtained relative to vehicle controls is presented. n=3 SD.” left out
This is another data set of the same source.

Chain of eIF4A2 (P10630 whole entry, one chain of several): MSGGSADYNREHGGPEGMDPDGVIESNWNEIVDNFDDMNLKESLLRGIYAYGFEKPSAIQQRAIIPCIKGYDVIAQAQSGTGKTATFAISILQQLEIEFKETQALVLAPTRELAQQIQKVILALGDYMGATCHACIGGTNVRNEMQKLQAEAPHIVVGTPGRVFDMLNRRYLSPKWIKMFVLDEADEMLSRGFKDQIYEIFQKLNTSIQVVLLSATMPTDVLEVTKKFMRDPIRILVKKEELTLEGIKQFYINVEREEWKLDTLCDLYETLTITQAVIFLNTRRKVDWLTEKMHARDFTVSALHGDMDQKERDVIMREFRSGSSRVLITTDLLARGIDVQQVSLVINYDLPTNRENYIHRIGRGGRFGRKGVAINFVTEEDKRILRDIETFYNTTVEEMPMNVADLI
T1 sequence (P60843 whole entry, one chain of several): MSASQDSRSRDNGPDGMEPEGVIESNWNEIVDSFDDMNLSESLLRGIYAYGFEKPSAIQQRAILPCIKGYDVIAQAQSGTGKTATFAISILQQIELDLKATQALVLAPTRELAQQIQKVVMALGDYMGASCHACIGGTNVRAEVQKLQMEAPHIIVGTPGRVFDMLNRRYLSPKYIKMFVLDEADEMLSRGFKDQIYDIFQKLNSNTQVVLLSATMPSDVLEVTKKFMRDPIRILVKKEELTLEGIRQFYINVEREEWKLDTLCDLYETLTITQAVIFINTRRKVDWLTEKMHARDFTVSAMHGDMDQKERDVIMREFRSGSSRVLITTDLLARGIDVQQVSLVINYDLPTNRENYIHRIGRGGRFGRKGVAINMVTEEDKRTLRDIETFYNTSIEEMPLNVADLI

B1: r(A(GAA)5) (ssRNA)
RNA: AGAAGAAGAAGAAGAA
B1: the binding result in series [1] and in series [2] was “binds” each time.

B2: poly r(AG)8 (ssRNA)
RNA: AGAGAGAGAGAGAGAG
In the case of B2, the binding result in series [3] and in series [1] was “binds” throughout.

For the origin of these results see patent publication US20200392147, “AMIDINO- AND AMINO-ROCAGLATES AS NOVEL TRANSLATION INHIBITORS AND ANTICANCER AGENTS” (TRUSTEES OF BOSTON UNIVERSITY, published 2020).
